Laboratory results taken from article PMC11467371, “Structure‐based design of antibodies targeting the EBNA1 DNA‐binding domain to block Epstein–Barr virus latent infection and tumor growth”.

Target: EBNA1 DBD (Epstein-Barr virus (strain B95.8), UniProt P03211 461-607)
Assay: fluorescence polarization; EC50; 1 mM MgCl2; FP: 200 mM NaCl, 20 mM Tris-HCl pH 7.5, 1 mM MgCl2, 0.01% CHAPS; 20 nM FAM probe stock mixed 1:1 with 0.31-20 µM protein, 20 min; temperature not stated
Conditions: protein: recombinant, tags: N-terminal 6xHis-SUMO, removed by ULP1, chain copies: 2, label: 5'-FAM, called 18-bp

Sequence of EBNA1 DBD (P03211 461-607): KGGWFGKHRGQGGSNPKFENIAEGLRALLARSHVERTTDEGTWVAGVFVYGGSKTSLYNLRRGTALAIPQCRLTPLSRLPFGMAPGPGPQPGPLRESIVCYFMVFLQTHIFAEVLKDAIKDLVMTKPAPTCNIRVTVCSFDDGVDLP

B1: DNA02 (dsDNA)
DNA 1: GGGTAACCACTGTTACCC
DNA 2: GGGTAACAGTGGTTACCC
Only the FAM strand is printed, complement implied
  apparent K (half saturation): 1540 nM

B2: DNA01 (dsDNA)
DNA 1: GGGTAGCATATGCTACCC
DNA 2: GGGTAGCATATGCTACCC
blunt, one self-complementary strand printed, 2 copies
  apparent K (half saturation): 2130 nM
